Here are results for one protein from PMC9937993, “Structures of the NDP-pyranose mutase belonging to glycosyltransferase family 75 reveal residues important for Mn^2+ coordination and substrate binding” (The Journal of Biological Chemistry, 2023).

The data set concerns the molecule itself. Nature of the data set: SEC; size exclusion chromatography of AtRGP2 WT and its F280D/L283D/Y287D mutant (Fig. S12A); column and buffer not given. For orientation: SEC sorts molecules by how far they enter the pores of the column.

B1: AtRGP2 wildtype, recombinant (enzyme)
chain: not shown
notes: AtRGP2, UniProtKB Q9LFW1; codon-optimized gene cloned into pET32a; Only the vector pET32a and the nickel-sepharose purification are stated; also called AtRGP2 WT; source: E. coli BL21-Gold (DE3), purified (nickel-sepharose, Superdex 200)
Consider B1, for which the binding result is listed as “binds”.
